From patent US20240052048A1 (SUZHOU QIN PHARMACEUTICALS, published 2024) come the findings set out here.

A word on the EC50: it is the concentration giving half of the maximal effect. What is called IC50 is the concentration needed to halve the response being measured. What is called Kd is the equilibrium constant for the complex coming apart. One may read the koff as the rate constant with which the complex falls apart. Usually kon stands for the second-order rate constant of association.

Read-outs that look alike come from different tables or passages of the source.

T1: human-APRIL-Fc (human, UniProt O75888 115-250, limits assumed)
T1 construct: Bought from ACRO Biosystems, APL-H5267; also called human APRIL protein; ACRO Biosystems APL-H5267; not shown: Fc tag
T1 sequence (looked up): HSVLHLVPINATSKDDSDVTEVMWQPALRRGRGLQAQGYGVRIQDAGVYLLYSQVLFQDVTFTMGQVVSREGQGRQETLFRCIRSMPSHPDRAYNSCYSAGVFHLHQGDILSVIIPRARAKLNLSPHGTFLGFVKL

T2: human BCMA on H929 cells (human, UniProt Q02223 1-184)
T2 construct: whole, on cells; also called human myeloma cell line H929 cells expressing BCMA
T2 sequence (looked up): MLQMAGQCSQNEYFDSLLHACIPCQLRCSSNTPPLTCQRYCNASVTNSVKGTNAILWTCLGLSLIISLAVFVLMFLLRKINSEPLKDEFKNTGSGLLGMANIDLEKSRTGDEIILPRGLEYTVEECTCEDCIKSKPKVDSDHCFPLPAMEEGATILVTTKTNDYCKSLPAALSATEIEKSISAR

T3: Biotin-labeled human BCMA (human, UniProt Q02223 1-54, limits assumed, Biotin-labeled (site not stated))
T3 sequence (looked up): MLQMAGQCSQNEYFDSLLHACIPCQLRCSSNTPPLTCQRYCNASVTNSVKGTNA

T4: human BCMA on BCMA-HEK293 cells (human, UniProt Q02223 1-184)
T4 construct: whole, on cells; also called human BCMA-HEK293 cells; HEK293 cells overexpressing human BCMA
T4 sequence (looked up): T2 sequence (looked up)

T5: human-BCMA-His (human, UniProt Q02223 1-54)
T5 construct: Bought from ACRO Biosystems, catalog BCA-H522y; also called ACRO Biosystems BCA-H522y; not shown: His tag
T5 sequence (looked up): T3 sequence (looked up)

T6: human-BCMA-Fc (human, UniProt Q02223 1-54)
T6 construct: Bought from ACRO Biosystems, catalog BC7-H5254; also called ACRO Biosystems BC7-H5254; not shown: Fc tag
T6 sequence (looked up): T3 sequence (looked up)

B1: human BCMA (recombinant antigen, tag not stated for the assay) (receptor, UniProt Q02223 1-54, looked up)
chain: T3 sequence (looked up)
notes: The ELISA and screening sections say only 'human BCMA'; also called human BCMA antigen
B2: GSK2857916 (positive control antibody, not coupled to the toxin molecule) (antibody, V domains shown)
VH: QVQLVQSGAEVKKPGSSVKVSCKASGGTFSNYWMHWVRQAPGQGLEWMGATYRGHSDTYYNQKFKGRVTITADKSTSTAYMELSSLRSEDTAVYYCARGAIYDGYDVLDNWGQGTLVTVSS
VL: DIQMTQSPSSLSASVGDRVTITCSASQDISNYLNWYQQKPGKAPKLLIYYTSNLHSGVPSRFSGSGSGTDFTLTISSLQPEDFATYYCQQYRKLPWTFGQGTKLEIK
notes: also called Belantamab mafodotin antibody; positive antibody

Assay [1] deals with T1, human-APRIL-Fc. Briefly: ELISA (OD450), plate coated with APRIL 1 µg/ml, human BCMA titrated up to 10 µg/mL; EC50 table in the figure.
For assay [2], the target named is T1, human-APRIL-Fc. Kind of assay: ELISA (OD450), plate coated with APRIL 2 µg/ml, human BCMA titrated up to 10 µg/mL; EC50 table in the figure. For orientation: An ELISA detects its analyte on a solid surface through an enzyme-linked reagent.
Assay [3] concerns the target T1, human-APRIL-Fc. Briefly: ELISA (OD450), plate coated with APRIL 4 µg/ml, human BCMA titrated up to 10 µg/mL; EC50 table in the figure.
Assay [4] addresses T1, human-APRIL-Fc. Kind of assay: ELISA (OD450), plate coated with APRIL 8 µg/ml, human BCMA titrated up to 10 µg/mL; EC50 table in the figure.
Assay [5] addresses T2, human BCMA on H929 cells. Kind of assay: flow cytometry (MFI) on myeloma cell line H929 expressing BCMA; EC50 table in the figure; curve still rising at about 60 µg/mL. On the technique in general: Flow cytometry measures light scatter and fluorescence of single cells or particles in a stream.
The target of assay [6] is T3, Biotin-labeled human BCMA. Kind of assay: blocking ELISA (OD450): human APRIL coated, antibody premixed with Biotin-labeled human BCMA; blocked ligand APRIL; IC50 table in the figure.
In assay [7] the target is B1. Kind of assay: ELISA (OD450) on coated human BCMA; EC50 table in the figure.
In assay [8] the target is T4, human BCMA on BCMA-HEK293 cells. Kind of assay: flow cytometry (MFI) on HEK293 cells expressing human BCMA; EC50 table in the figure.
Assay [9] deals with T7, monkey BCMA (recombinant antigen, tag not stated for the assay) (monkey, UniProt A0A2K5UD97 1-53).
T7 construct: The ELISA, screening and BLI sections say only 'monkey BCMA' or 'monkey BCMA protein'; also called monkey BCMA protein; monkey BCMA antigen; not shown: The carrier tag (human IgG1 Fc or His tag) of the bought ACRO antigen
Kind of assay: ELISA (OD450) on coated monkey BCMA; EC50 table in the figure.

The target of assay [10] is T4, human BCMA on BCMA-HEK293 cells. Briefly: flow cytometry (MFI) on HEK293 cells expressing human BCMA; EC50 table in the figure. This is another data set of the same source.
Assay [11] addresses T3, Biotin-labeled human BCMA. Briefly: blocking ELISA (OD450): human BAFF coated, antibody premixed with Biotin-labeled human BCMA; blocked ligand BAFF; IC50 table in the figure.
The target of assay [12] is T3, Biotin-labeled human BCMA. The assay is described as above. The source holds these as a separate data set.
Assay [13] addresses T3, Biotin-labeled human BCMA. Described as above. This is another data set of the same source.
Assay [14] addresses T3, Biotin-labeled human BCMA. Kind of assay: blocking ELISA (OD450): human APRIL coated, antibody premixed with Biotin-labeled human BCMA; blocked ligand APRIL; IC50 table in the figure. The source holds these as a separate data set.
Assay [15] concerns the target T5, human-BCMA-His. Briefly: ELISA (OD450), GSK2857916 titrated up to 10 µg/mL on Human BCMA-His; EC50 table in the figure.
Assay [16] deals with T6, human-BCMA-Fc. Kind of assay: ELISA (OD450), GSK2857916 titrated up to 10 µg/mL on Human BCMA-Fc; EC50 table in the figure.
Assay [17] addresses T7, monkey BCMA (recombinant antigen, tag …). Kind of assay: ELISA (OD450) on coated monkey BCMA; EC50 table in the figure. The source holds these as a separate data set.
The target in assay [18] is B1. Briefly: ELISA (OD450) on coated human BCMA; EC50 table in the figure. The source holds these as a separate data set.
The target in assay [19] is T7, monkey BCMA (recombinant antigen, tag …). Kind of assay: ELISA (OD450) on coated monkey BCMA; EC50 table in the figure. This is another data set of the same source.
Assay [20] addresses T8, monkey BCMA on BCMA-CHO cells (cynomolgus monkey, UniProt A0A2K5UD97 1-183).
T8 construct: whole, on cells; also called monkey BCMA-CHO cells; CHO cells overexpressing monkey BCMA
Briefly: flow cytometry (MFI) on CHO cells expressing monkey BCMA; EC50 table in the figure.

For assay [21], the target named is T8, monkey BCMA on BCMA-CHO cells. Briefly: flow cytometry (MFI) on CHO cells expressing monkey BCMA; EC50 table in the figure; curve still rising at 10 µg/mL.
Assay [22] concerns the target B1. Briefly: ELISA (OD450) on coated human BCMA; EC50 table in the figure. This is another data set of the same source.
In assay [23] the target is T7, monkey BCMA (recombinant antigen, tag …). Briefly: BLI (Octet RED96), antibody on FAB2G sensor, monkey BCMA protein at 200, 50, 12.5 nM.
Assay [24] concerns the target T6, human-BCMA-Fc. Kind of assay: BLI (Octet RED96), antibody on FAB2G sensor, human BCMA-Fc at 200, 50, 12.5 nM. (Biolayer interferometry detects binding as a change in optical thickness at a sensor tip.)
Assay [25] concerns the target T3, Biotin-labeled human BCMA. Briefly: blocking ELISA (OD450): human APRIL coated, antibody premixed with Biotin-labeled human BCMA; blocked ligand APRIL; IC50 table in the figure. The source holds these as a separate data set.

T7 sequence (A0A2K5UD97 entry or part of it limits assumed): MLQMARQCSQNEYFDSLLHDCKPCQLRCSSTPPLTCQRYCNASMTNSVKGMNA
T8 sequence (A0A2K5UD97 entry or part of it): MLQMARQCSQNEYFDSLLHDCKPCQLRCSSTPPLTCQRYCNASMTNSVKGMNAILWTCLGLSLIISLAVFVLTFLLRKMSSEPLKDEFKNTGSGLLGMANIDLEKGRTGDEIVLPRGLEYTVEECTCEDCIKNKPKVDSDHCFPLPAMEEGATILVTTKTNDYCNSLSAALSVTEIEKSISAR

B1: the EC50 in [1] was determined as 1.07 µg/mL; in assay [2], 1.28 µg/mL; in [3] it was 1.57 µg/mL; in assay [4] it was 2.05 µg/mL.
As to B2, the EC50 in assay [5] was determined as 6.8 µg/mL; in [7], 0.514 µg/mL; in assay [8] it was 0.293 µg/mL; in assay [9], 0.749 µg/mL; in [10], 1.09 µg/mL; in [15] it was 0.77 µg/mL. In addition, the EC50 in assay [16] came to 0.304 µg/mL; in [17], 0.862 µg/mL; in assay [18] it was 0.642 µg/mL; in [19] it was 0.341 µg/mL; in assay [20] it was 2.88 µg/mL; in assay [21], 7.22 µg/mL. In addition, the EC50 in [22] was 0.772 µg/mL. Moreover, the IC50 in [6] came out at 1.6 µg/mL; in assay [11], 1.37 µg/mL; in assay [12], 1.36 µg/mL; in [13], 1.41 µg/mL; in [14], 1.79 µg/mL; in assay [25], 1.51 µg/mL. The Kd came out at 0.352 nM in assay [23] and 0.0539 nM in [24]. The figures for the koff in assay [23] and in assay [24] were 0.000111 s⁻¹ and 1.19e-05 s⁻¹, respectively. For the same molecule, the values for the kon in assay [23] and in [24] were 317000 M⁻¹ s⁻¹ and 220000 M⁻¹ s⁻¹, respectively.
